# Source: US20140371148A1
# Molecular target: ACE from rabbit lung (rabbit) (UniProt P12822)
# Experiment: cell-based or functional assay
# Chain of ACE from rabbit lung (rabbit) (P12822 34-1310 limits assumed, form in doubt): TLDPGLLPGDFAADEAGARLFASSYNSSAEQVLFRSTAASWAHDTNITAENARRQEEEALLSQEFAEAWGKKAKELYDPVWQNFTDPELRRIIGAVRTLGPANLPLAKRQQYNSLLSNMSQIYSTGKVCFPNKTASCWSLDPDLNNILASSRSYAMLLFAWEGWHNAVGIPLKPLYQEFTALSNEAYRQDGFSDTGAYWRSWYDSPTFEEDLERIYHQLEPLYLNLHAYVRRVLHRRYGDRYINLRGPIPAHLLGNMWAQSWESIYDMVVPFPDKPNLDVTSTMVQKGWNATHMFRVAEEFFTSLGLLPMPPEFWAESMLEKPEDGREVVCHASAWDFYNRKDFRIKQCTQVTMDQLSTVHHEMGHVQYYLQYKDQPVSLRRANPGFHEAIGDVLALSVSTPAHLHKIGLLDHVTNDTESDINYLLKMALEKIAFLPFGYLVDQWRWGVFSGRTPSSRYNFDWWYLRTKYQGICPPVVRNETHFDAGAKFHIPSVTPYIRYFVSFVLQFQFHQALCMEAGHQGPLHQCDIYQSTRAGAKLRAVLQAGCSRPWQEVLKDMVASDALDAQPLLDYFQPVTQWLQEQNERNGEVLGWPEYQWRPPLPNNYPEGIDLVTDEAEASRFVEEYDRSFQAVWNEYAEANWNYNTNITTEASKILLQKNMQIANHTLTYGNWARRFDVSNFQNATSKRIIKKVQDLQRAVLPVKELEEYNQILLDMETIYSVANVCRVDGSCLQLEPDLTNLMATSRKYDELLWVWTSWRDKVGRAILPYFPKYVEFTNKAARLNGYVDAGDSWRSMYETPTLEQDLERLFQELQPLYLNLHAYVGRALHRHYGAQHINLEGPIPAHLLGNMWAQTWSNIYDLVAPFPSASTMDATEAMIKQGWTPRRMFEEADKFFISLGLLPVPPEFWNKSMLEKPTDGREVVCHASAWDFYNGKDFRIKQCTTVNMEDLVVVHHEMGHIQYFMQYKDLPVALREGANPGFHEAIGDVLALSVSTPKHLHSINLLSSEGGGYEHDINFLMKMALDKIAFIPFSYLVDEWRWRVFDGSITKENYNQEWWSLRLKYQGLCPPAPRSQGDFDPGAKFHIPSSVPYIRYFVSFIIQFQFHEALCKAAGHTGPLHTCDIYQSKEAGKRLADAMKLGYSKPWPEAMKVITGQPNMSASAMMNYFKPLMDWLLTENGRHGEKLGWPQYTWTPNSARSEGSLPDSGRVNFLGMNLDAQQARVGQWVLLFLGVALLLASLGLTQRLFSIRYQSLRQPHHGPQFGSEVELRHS
substance,measurement,value
GLP-1-(7-37)-γ-Abu-N^ε2Lys-(Pyr)-WAP-OH (peptide),ACE inhibition IC50,> 10 µM
